# Experiment: yeast display, Sf9 membrane polyspecificity reagent, FACS + sequencing; frameworks hold sequencing errors
# Procedure, shortened: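 Galactose induction of a Saccharomyces cerevisiae BJ5465 synthetic nanobody display library ran 36–48 hours. The cells were then stained for 1 hour at 4 °C with 10% biotinylated, detergent-solubilized Sf9 membrane reagent, pulled down on streptavidin microbeads and FACS-sorted into low and high (top ~1%) gates on expression and reagent-binding fluorescence. Labels for polyreactivity follow the gate of origin.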
row,Sequence,polyreactivity (PSR sort gate)
1,QVQLVESGGGLVQAGGSLRLSCAASGSIFVHYAMGWYIQEPGKERELVARISWRGNTYYADSVKGRFTISRDNAKNTVYLQMNSLKPEDTAVYYCAKDVRRSLVNWDVVYPHGYWGQGTQVTVSS,low polyreactivity
2,QVQLVESGGGLVQAGGSLRLSCAASGIIFPFYGMGWYRPAPGKERELVAAITSGDDTYYADSVKGRFTISRDNAKNTVYLQMNSLKPEDTAVYYCNKRVYIAGYWPQLYYIMDYWGQGTQVTVSS,low polyreactivity
3,QVQLVESGGGLVQAGGSLRLSCAASGRIFVNNAMGWSRQAPGKERELVAAISKRGGSTYYADSVKGRFTISRDNAKNSVYLQMNSLKPEDTAVYYCAATPVYSGPYDYWGQGTQVTVSS,high polyreactivity
4,QVQLVESGGGLVQAGGSLRLSCAASGSTLHEYAMGWSIQAPGKERELVAAISRGGGNTNYADSVKGRFTISRDNAKNTVYLQMNSLKPEDTAVYYCNARHGKIIFYLERYDYWGQGTQVTVSS,low polyreactivity
5,QVQLVESGGGLVQAGGSLRLSCPASGFNFPAYTMGSYRQAPGKERELVAAITSSGGNTYYADSVKGRFTISRDNAKNTVYFQMNSLKPEDTAVYYCATVSVRWPSNDHVRYDYWGQGTQVTVSS,low polyreactivity
6,QVQLVESGGGLVQAGGSLRLSSAASGSTFGYYAMGWYRQAPGKERELVAVIRSRTGDTNYADSVKGRFTISRDNAKNTVYLQMNSQKPEDTAVYYCNAALWYGSTIYSYRYGYWGHGTQVTVSS,high polyreactivity
7,QVQIVESCGGLFQAAGRLRLICADSRSIFSYNAMGWYRQAPGKERELVAAITSGGRTYYADSVKGRFTISRDNAKNTVYLQMNSLKPEDTGVYYCAAYQTGLHGFYSWGQGTQVTVSS,high polyreactivity
8,QVQLGESGGGLVQAGGSLRLSCAASGSIFIGNAMGWYRQAPGKERELVAAITGRGGRTYYADSVKGRFTISRDNAKNTVYLQMNSLKTEDTAVYYCNAVARQFLYGYWGEGTQVTVSS,high polyreactivity
9,QVKHVESGGGLVQAGGSLRLSCAASGFTFSYYAMGWFRQAPGKERELVAAITSGGSTYYADYVKGRFTISRDNAKNTVYLQMNSLKPEDTAVYYCNADGWYYPTDDYWGHGTQVTVSS,low polyreactivity
10,QVQLVESGGGLVQAGGSLRLSCAASGSIFYRNAMGWYRQAPGKERELVAAISASGGSTYYADSVKGRFTISRDNAKNTVYLQMNSLNPEDTAFYYCAVEYRKSRSYYPYYYWGQGTQVTVSS,high polyreactivity
11,QVQLVESGGGLVQAGGSLRLSCAASGRIFYPYAMGWYRQAPGKERELVAAISRSGGSTYYADSVKGRFTISRDNAKNTVYLQMNSLKPEDTAVYYCAKVTSSGDAVLTQIPYGYDYWGQGTQVTVSS,low polyreactivity
12,QVQLVESGGGLFQAVGSLRLSCAASGSTFIPNAMGWYRQAPGKERELVADISYSGGTTYYADSVKGRFTISRDNAKKTVYLQMNSLKPEDTSVYYCAAVYYTSFYSWPPYDYWGQGTQVTVSS,low polyreactivity
13,QVQLVESGGGLVQAGGSLSLSCAASGSIFYYNAMGWYRQAPGKERELVAAITSSAITNYADSVKGRFTISRDNAKNTVYLQMKSRKPEDTAVYYCAGRITTRPRSTRKRVWVDYWGQGTQVTVSS,high polyreactivity
14,QVQLVESGGGLVQAGGSLRLSCAASGITFSHNAMGWYRQAPGKERELVAAITRSGRSTYYADSVKGRFTISRDNAKNTVYLQMNSLKPEDTAVYYCSTDNHQRRAGSGYWGQGTQVTVSS,low polyreactivity
15,QVQLVESGGGLVQAGGSLRLRCAPSGFIFIFNAMGWYRQAPGKERELVAAIDTSDDSTYYADSVKGRFTISRDNAKNTVYLQMNSLKPEDTAVYYCAAEELSNYEYWGQGTQVTVSS,low polyreactivity
16,QVQLVESGGGLVQAGGSLRLSCAASGITFYRYAMGWYRQAPGKERELVAAISTSGGTTYYADSVKERFTISRDNAKNTVYLQMNSLKPEDTAVYYCAAQYLRWSRMDYWGQGTQVTVSS,high polyreactivity
17,QVQLVESGGGLVQAGGSLRLSCAASGIIFYLYAMGWYIQAPGKERELVAAISWGGGTTYYADSVKGRFTISRDNAKNTVYLQMNSLKPEDTAVYYCAAETEYYSYRFDYWGQGTQVTVSS,high polyreactivity
18,QVQLVESGGGLVQAGGSLRLSCADSGITFWRYAMGWYRHAPGKERELVAAISWSGGNTYYADSVKGRFTISRDNAKNTVYLQMNSLKPEDTAVYYCATSRTYVIYDYWGQGTQVTVSS,low polyreactivity
19,QVQLVESGGGLVQAGGSLRLSCAASGFTFKQYGMGWYRQAPGKERELVASISYRGGSTHYADSVKGRFTISRDNAKKTVYLQMNSLKPEDTAVYYCAARVTSRTSIKGDYWGQGTQVTVSS,low polyreactivity
20,QVQLVESGGGLVHAGGSLRLSCASSGSTFVLYAMGWYRQAPGKERELVAVISWSGGSTYYADSVKGRFTISRDNAKNTVYLQLYSLKPEDTAVYYCAKRYRVSYYPYADPYGYWGQGTQVNVSS,low polyreactivity
21,QVQLVESGGGLVQAGGSLRLSCAASGSIFFPNAMGWYRQAPGKERELVAAITSTSTNYADSVKGRCTISRDNAKNTVYLQMNSLKPEDTAVYYCAADGEFRRAWYEGVYWGQGTQVTVSS,low polyreactivity
22,QVQLVESGGGLVQAGGSLRLSCAASGSIFSSYAMGWYRQAPGKERELVAAIDGSGGSTYADSVKGRFTISRDNAKITVYLQMNRLKPEDTAVYYCAVDSFLVYSAVRPYDYWGLGTQVTVSS,low polyreactivity

row,Sequence,polyreactivity (PSR sort gate)
1,QVQRVESAGRLVQAGGSLRLSCAPSGRTFPGNDMGWYRQAPGKESEFVAAISSDDSTYYADSVKGRFTISRDNAKNTVYLQMNSLKPEDTGVYYSNAEYFEGYIGVPGSYWPYEYWGQGNQVTVSS,low polyreactivity
2,QVQLVESGGGLVQAGGSLRLSCAASGLTFSRNAMGWYRQAPGKEWELVAAISGSGGSTYYADSVKGRFTISRDNAKYTVYLQMNSLKPEDTAVYYCAKVSRSKQKFDYWGQGTQVTVSS,high polyreactivity
3,QVQLVESGGGLVQAGGRLRLSCAAAGSIFSYTMGWYRQAPWKERELVAAIRRRGGSTYYADSVKGRFTISRDNAKNTVYLQMTSLKPEDTAVYYCAADGYQYRHRRFFYWGQGTQVTVSS,high polyreactivity
4,QGQHVESGGGLVQAGGSLRLSCAASGNILASNGMGWYRQAPGKERELVAAITFSGDTTYYADSVKGRFTISRDNAKNTVYLQMNSLKPEDTAVYYCNDGSFIVNGGYDGDYWGQGTQVTLSS,low polyreactivity
5,QVQLVESGGGLVQAGGSLRLTCAASGNIFYTYAMGWYRQPPGKERELVAGLSSDGSTTYADSVKGRFTISRDNAKNTVYLQMNSLNPEDTAVYYCPADITGILWYGYYYWGQGTQVTVSS,low polyreactivity
6,QVQLVESGAGLVQAGGSRRLSCAASGSIFYRYTMGWYRQAPGKERELVAGITFGAGTYYADSVKGRFTISRDNAKNTVYLQMNSLKPEDTAVYYCNAIHLPRNRDYWGQGTQVTVSS,low polyreactivity
7,QVQLVESGGGLVQAGGSLRLSCAASGRNFSANAMGWYRQAPGKEREMVATISSGGRTNYADSVKGRFTISRDNAKNTVYVQMNSLKPEDTAVYYCAKRGPYNRWYGRYDYWGQGTQVTVSS,low polyreactivity
8,QVQLVESGGGLVQAGGSLRLSCAASGFTFIRYAMGWYRQAPGKERELVATITRRGGSTYYADSVKGRFTISRDNAKNTVYLQMNSLKPEDTAVYYCNRDYVTYGKYYYWGQGTQVTVSS,high polyreactivity
9,QVQLVESGGGLVQAGGSLRLSSAASGSIFWHYAMGRYRQAHGKERQLVAGISTRGGITYFADSVKGRFTISRDNAKNTVYLQMNSLKPEDTAVYYCNGVLFFQWFWTYDDYWGQGTQVTVSS,low polyreactivity
10,QVQLVESGGGLVQAGGSLRLSCAASGSIFSSNAMGWYRPAPGKERELVAAITSGGSTTYADSVKGRFTISRDNAKNTVYLQMNSLKPEDTAVYYCAADPVYRYYHGWTYLDYDYWGQGTQVTVSS,low polyreactivity
11,QVQLVESGGGLVQAGGSLRLSCAASGSTFRYYAMGWYRQAPGKERELVAAISRSGGSTSYADSVKGRFTISRDNAKNTVYLQMNSLKPEDTAVYSCAARIYRKYYRYDYWGQGTQVTVSS,high polyreactivity
12,QVQLVESAGGLVQAGGSLRLSCDASGSIFRYYDMGWYRQAPGKERELVAAITYYGGGTYYADSVKGRFTISRDNAKNTVYLQMNSLKAEDTAVYYCAVRRVGSIYMDRYRYVVADYVYWGQGTQVTVSS,low polyreactivity
13,QVHLVESGGGLVQAGGSLRLSCAASGRIFNYYAMGWYRQAHGKERELVAAISNGGSTYYADSVKGRFTISRDNAKNTVYLQMNSLKPEDTAVYYCNAAARNGYARRVYYWGQGTQVTVSS,high polyreactivity
14,QVQLVESGGGLVQAGGSLRLSCAASGRIFADYAMGWYRQAPGKERELVADIRQSGGRTYYADSVKGRFTISRDNAKNTVYFQINRLKPEDTAVYYCATDYGSWGDYSGKYDYWGQGTQVTVSS,low polyreactivity
15,QVQLVESGGGLVQAGGSLRLSCAASGSTLEFNAMGWYRQAPGKERELVAVINRSDGSTYYADSVKGRFTISRDNAKNTVYLQMNSLKPEDTADYYCAADRHQVSVISTEDYWGQGTQVTVSS,low polyreactivity
16,QVQLVESGGGLVQAGGSLRLSCAASGSIFGAYTMGGYRQAPGKERELVAAISIGGSTNYADSVKGRFTISRDYAKNTVYLQMNSLKPEDSAVYYCNAEPDLEDWWWAIGLYDYWGQGTQVTVSS,high polyreactivity
17,QVQLVESGGGLVQAGGSLRLSCAASGRIFWYYDMGWYRQAPGKERELVAAITSGGRTYYADSVKGRFTISRDNAKNTVYLQMNRLKPEDTAVYYCAAEGFYTTGSPYSGGLDYWGQGTQVTVSS,low polyreactivity
18,QVQLVESGGGLVQAGGSLRLSCAASGSIFEGNAMGWSRQAPGKERELVAAITGRGGSTYYADSVKGRFTISRDNAKNTVYLQMNSLKPEDTAVYYCAARVRRLSSIIYYYWGQGTQVTVSS,high polyreactivity
19,QVQLVESGGGLVQAGGSLRLSCAASGSIFRKYTMGWYRQAPGKERELVAAISRIGGSTYYADSVKGRFTISRDNAKNTVYLQMNSLKPEDTAVYYCAKRGPRSYFQPWYDYWGQGTQVTVSS,high polyreactivity
20,QVQLVESGGGLVQAGASLRLSCAASGLTFIFYAMGWYRQAPGKERELVAAISVSGGCTYYADSVKGRFTISRDNAKNTVYLQMNSLKPEDTAVYYCAADREHFATYGPHMDYWGQGTQVTVSS,low polyreactivity
21,QVQLVESGGGLVQAGGSLRLSCAASGFTFGGYAMGWYRQAPGKERDLVAAITGSGGNTIYADSVKGRFTISRDNAKNTFYLQINSLKPDDTAVYYCNARYTSHTHADCVYLFDYWGQGTQVNVSS,low polyreactivity
